B1: 276 (peptide)
peptide: Ac-[dA]NWNGFG[dL]RF-NH2
SMILES: CC(=O)N[C@H](C)C(=O)N[C@@H](CC(N)=O)C(=O)N[C@@H](Cc1c[nH]c2ccccc12)C(=O)N[C@@H](CC(N)=O)C(=O)NCC(=O)N[C@@H](Cc1ccccc1)C(=O)NCC(=O)N[C@H](CC(C)C)C(=O)N[C@@H](CCCNC(=N)N)C(=O)N[C@@H](Cc1ccccc1)C(N)=O
B2: 274 (peptide)
peptide: Ac-[dA]NWNPFG[dW]RF-NH2
SMILES: CC(=O)N[C@H](C)C(=O)N[C@@H](CC(N)=O)C(=O)N[C@@H](Cc1c[nH]c2ccccc12)C(=O)N[C@@H](CC(N)=O)C(=O)N1CCC[C@H]1C(=O)N[C@@H](Cc1ccccc1)C(=O)NCC(=O)N[C@H](Cc1c[nH]c2ccccc12)C(=O)N[C@@H](CCCNC(=N)N)C(=O)N[C@@H](Cc1ccccc1)C(N)=O
B3: 248 (peptide)
peptide: Ac-[dA]NWNGFGWRF-NH2
SMILES: CC(=O)N[C@H](C)C(=O)N[C@@H](CC(N)=O)C(=O)N[C@@H](Cc1c[nH]c2ccccc12)C(=O)N[C@@H](CC(N)=O)C(=O)NCC(=O)N[C@@H](Cc1ccccc1)C(=O)NCC(=O)N[C@@H](Cc1c[nH]c2ccccc12)C(=O)N[C@@H](CCCNC(=N)N)C(=O)N[C@@H](Cc1ccccc1)C(N)=O
B4: 240 (peptide)
peptide: Ac-[dY][dN]WNGFGWRF-NH2
B5: 242 (peptide)
peptide: Ac-[dY][dN]WNGFG[dW]RF-NH2
modifications: also: further groups not given here
B6: 245 (peptide)
peptide: Ac-[dY]NWNG[dW]G[dW]RF-NH2
SMILES: CC(=O)N[C@H](Cc1ccc(O)cc1)C(=O)N[C@@H](CC(N)=O)C(=O)N[C@@H](Cc1c[nH]c2ccccc12)C(=O)N[C@@H](CC(N)=O)C(=O)NCC(=O)N[C@H](Cc1c[nH]c2ccccc12)C(=O)NCC(=O)N[C@H](Cc1c[nH]c2ccccc12)C(=O)N[C@@H](CCCNC(=N)N)C(=O)N[C@@H](Cc1ccccc1)C(N)=O
B7: 237 (peptide)
peptide: Ac-[dY]NWNGFGWRF-NH2
SMILES: CC(=O)N[C@H](Cc1ccc(O)cc1)C(=O)N[C@@H](CC(N)=O)C(=O)N[C@@H](Cc1c[nH]c2ccccc12)C(=O)N[C@@H](CC(N)=O)C(=O)NCC(=O)N[C@@H](Cc1ccccc1)C(=O)NCC(=O)N[C@@H](Cc1c[nH]c2ccccc12)C(=O)N[C@@H](CCCNC(=N)N)C(=O)N[C@@H](Cc1ccccc1)C(N)=O
B8: 191 (peptide)
peptide: Ac-FG[dL]RW-NH2
B9: 277 (peptide)
peptide: Ac-[dA]NWN[dA]FGLRF-NH2
SMILES: CC(=O)N[C@H](C)C(=O)N[C@@H](CC(N)=O)C(=O)N[C@@H](Cc1c[nH]c2ccccc12)C(=O)N[C@@H](CC(N)=O)C(=O)N[C@H](C)C(=O)N[C@@H](Cc1ccccc1)C(=O)NCC(=O)N[C@@H](CC(C)C)C(=O)N[C@@H](CCCNC(=N)N)C(=O)N[C@@H](Cc1ccccc1)C(N)=O
B10: Peptide 271 (peptide)
peptide: Ac-RRMKWKKY[dA]NWNGFG[dW]RF-NH2
B11: 278 (peptide)
peptide: Ac-[dA]NWNGFGL[dR]F-NH2
B12: 241 (peptide)
peptide: Ac-[dY][dN]WNSFG[dW]RF-NH2
B13: 239 (peptide)
peptide: Ac-[dY][dN]WNSFGWRF-NH2
SMILES: CC(=O)N[C@H](Cc1ccc(O)cc1)C(=O)N[C@H](CC(N)=O)C(=O)N[C@@H](Cc1c[nH]c2ccccc12)C(=O)N[C@@H](CC(N)=O)C(=O)N[C@@H](CO)C(=O)N[C@@H](Cc1ccccc1)C(=O)NCC(=O)N[C@@H](Cc1c[nH]c2ccccc12)C(=O)N[C@@H](CCCNC(=N)N)C(=O)N[C@@H](Cc1ccccc1)C(N)=O
B14: 238 (peptide)
peptide: Ac-[dY]NWNSFG[dW]RF-NH2
SMILES: CC(=O)N[C@H](Cc1ccc(O)cc1)C(=O)N[C@@H](CC(N)=O)C(=O)N[C@@H](Cc1c[nH]c2ccccc12)C(=O)N[C@@H](CC(N)=O)C(=O)N[C@@H](CO)C(=O)N[C@@H](Cc1ccccc1)C(=O)NCC(=O)N[C@H](Cc1c[nH]c2ccccc12)C(=O)N[C@@H](CCCNC(=N)N)C(=O)N[C@@H](Cc1ccccc1)C(N)=O
B15: 243 (peptide)
peptide: Ac-[dW]NWNGFG[dW]RF-NH2
SMILES: CC(=O)N[C@H](Cc1c[nH]c2ccccc12)C(=O)N[C@@H](CC(N)=O)C(=O)N[C@@H](Cc1c[nH]c2ccccc12)C(=O)N[C@@H](CC(N)=O)C(=O)NCC(=O)N[C@@H](Cc1ccccc1)C(=O)NCC(=O)N[C@H](Cc1c[nH]c2ccccc12)C(=O)N[C@@H](CCCNC(=N)N)C(=O)N[C@@H](Cc1ccccc1)C(N)=O
B16: 246 (peptide)
peptide: Ac-[dA]NWNG[dW]G[dW]RF-NH2
SMILES: CC(=O)N[C@H](C)C(=O)N[C@@H](CC(N)=O)C(=O)N[C@@H](Cc1c[nH]c2ccccc12)C(=O)N[C@@H](CC(N)=O)C(=O)NCC(=O)N[C@H](Cc1c[nH]c2ccccc12)C(=O)NCC(=O)N[C@H](Cc1c[nH]c2ccccc12)C(=O)N[C@@H](CCCNC(=N)N)C(=O)N[C@@H](Cc1ccccc1)C(N)=O
B17: 275 (peptide)
peptide: Ac-[dA]NWN[dP]FG[dW]RF-NH2
SMILES: CC(=O)N[C@H](C)C(=O)N[C@@H](CC(N)=O)C(=O)N[C@@H](Cc1c[nH]c2ccccc12)C(=O)N[C@@H](CC(N)=O)C(=O)N1CCC[C@@H]1C(=O)N[C@@H](Cc1ccccc1)C(=O)NCC(=O)N[C@H](Cc1c[nH]c2ccccc12)C(=O)N[C@@H](CCCNC(=N)N)C(=O)N[C@@H](Cc1ccccc1)C(N)=O
B18: 244 (peptide)
peptide: Ac-[dF]NWNGFG[dW]RF-NH2
SMILES: CC(=O)N[C@H](Cc1ccccc1)C(=O)N[C@@H](CC(N)=O)C(=O)N[C@@H](Cc1c[nH]c2ccccc12)C(=O)N[C@@H](CC(N)=O)C(=O)NCC(=O)N[C@@H](Cc1ccccc1)C(=O)NCC(=O)N[C@H](Cc1c[nH]c2ccccc12)C(=O)N[C@@H](CCCNC(=N)N)C(=O)N[C@@H](Cc1ccccc1)C(N)=O
B19: 247 (peptide)
peptide: Ac-[dA]NWNSFG[dW]RF-NH2
SMILES: CC(=O)N[C@H](C)C(=O)N[C@@H](CC(N)=O)C(=O)N[C@@H](Cc1c[nH]c2ccccc12)C(=O)N[C@@H](CC(N)=O)C(=O)N[C@@H](CO)C(=O)N[C@@H](Cc1ccccc1)C(=O)NCC(=O)N[C@H](Cc1c[nH]c2ccccc12)C(=O)N[C@@H](CCCNC(=N)N)C(=O)N[C@@H](Cc1ccccc1)C(N)=O

Non-standard residues stand in square brackets, D forms with d.

The target of the first assay is T1, human gpr-54 receptor (human, UniProt Q969F8 1-398). Description: cell-based or functional assay.
T1 sequence (Q969F8 whole entry): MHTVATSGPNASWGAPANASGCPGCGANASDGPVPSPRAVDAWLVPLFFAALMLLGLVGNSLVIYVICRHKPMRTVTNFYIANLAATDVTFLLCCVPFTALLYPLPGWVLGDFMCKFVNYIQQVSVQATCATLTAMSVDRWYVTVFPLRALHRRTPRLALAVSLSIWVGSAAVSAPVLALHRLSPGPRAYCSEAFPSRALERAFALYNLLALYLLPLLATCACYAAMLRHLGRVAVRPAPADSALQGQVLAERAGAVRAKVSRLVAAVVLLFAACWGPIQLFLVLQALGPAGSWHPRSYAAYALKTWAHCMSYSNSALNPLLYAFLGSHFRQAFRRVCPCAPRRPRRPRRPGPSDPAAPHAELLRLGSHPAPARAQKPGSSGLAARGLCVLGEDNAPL
With B1, the “Inhibition of IP stimulation by 10nM Agonist: % Inhibition of Max” value (“Inhibition … % Inhibition of Max” for short) was 65% and the “Inhibition of IP stimulation by 10nM Agonist: IC50” value (“Inhibition of IP stimulation … IC50” for short) worked out at 0.001 nM.
As for B2, the “IP stimulation (IC50), peptide alone” value amounted to 530000 nM; the “Inhibition … % Inhibition of Max” value was 73%; the “Inhibition of IP stimulation … IC50” value amounted to 0.1 nM.
Take B3: the “Inhibition … % Inhibition of Max” value was 64% and the “Inhibition of IP stimulation … IC50” value was 5000 nM.
Take B4: the “Inhibition … % Inhibition of Max” value stood at 39%.
As to B5, the “Inhibition … % Inhibition of Max” value amounted to 15%.
Turning to B6, the “Inhibition … % Inhibition of Max” value worked out at 66% and the “Inhibition of IP stimulation … IC50” value worked out at 10000 nM.
Regarding B7, the “IP stimulation (IC50), peptide alone” value worked out at 6400 nM and the “Inhibition … % Inhibition of Max” value came out at 0%.
Turning to B8, the “IP stimulation (IC50), peptide alone” value was 20000 nM and the “Inhibition … % Inhibition of Max” value worked out at 79%.
In the case of B9, the “IP stimulation (IC50), peptide alone” value worked out at 1500 nM; the “Inhibition … % Inhibition of Max” value turned out to be 57%; the “Inhibition of IP stimulation … IC50” value came to 0.05 nM.
As to B10, the “Inhibition … % Inhibition of Max” value is 57% and the “Inhibition of IP stimulation … IC50” value was 5 nM.
As to B11, the “Inhibition … % Inhibition of Max” value came to 47% and the “Inhibition of IP stimulation … IC50” value was above 100 nM.
Consider B12, for which the “Inhibition … % Inhibition of Max” value came to 24%.
As for B13, the “IP stimulation (IC50), peptide alone” value was 5 nM and the “Inhibition … % Inhibition of Max” value was found to be 0%.
B14: the “IP stimulation (IC50), peptide alone” value worked out at 2800 nM and the “Inhibition … % Inhibition of Max” value was 0%.
Take B15: the “Inhibition … % Inhibition of Max” value came to 55% and the “Inhibition of IP stimulation … IC50” value was 10 nM.
For B16, the “Inhibition … % Inhibition of Max” value worked out at 80% and the “Inhibition of IP stimulation … IC50” value came to 50 nM.
Turning to B17, the “IP stimulation (IC50), peptide alone” value was 21 nM; the “Inhibition … % Inhibition of Max” value is 44%; the “Inhibition of IP stimulation … IC50” value was above 100 nM.
In the case of B18, the “Inhibition … % Inhibition of Max” value turned out to be 60% and the “Inhibition of IP stimulation … IC50” value worked out at 10 nM.
The like results for B19 were, in that order, 80% and 8 nM.

The next assay concerns the target T1, human gpr-54 receptor. Description: cell-based or functional assay. The source holds these as a separate data set.
B7: the “IP dose response, peptide alone: EC50 (unlabelled number beside rising curve) [237]” value was determined as 6380 nM.
B14: the “IP dose response, peptide alone: EC50 (unlabelled number beside rising curve) [238]” value stood at 2820 nM.

Another assay concerns the target T1, human gpr-54 receptor. Description: cell-based or functional assay. This is another data set of the same source.
Regarding B13, the “IP dose response, peptide alone: EC50 (unlabelled number beside rising curve) [239]” value was determined as 4.99 nM.

Another assay concerns the target T1, human gpr-54 receptor. Briefly: cell-based or functional assay. This is another data set of the same source.
As for B8, the “IP dose response, peptide alone: EC50 (unlabelled number beside rising curve) [191]” value was found to be 26100 nM.

Source of the values: patent publication US20110046068A1 (MEDICAL RESEARCH COUNCIL, published 2011).
